The target of one data set is TRF2 (UniProt Q15554). Kind of data set: AFM imaging. As to conditions: N = 126; same conditions as T270; EMSA: 5 nM DNA, 100 nM TRF2, agarose gel; buffer, salt, pH and temperature not given in the material; AFM compaction comparison of TRF2ΔB at 300 nM protein.
In data set [1] the target is T1, TRF2 (full length, recombinant His6-tagged) (human), Q15554.
T1 chain: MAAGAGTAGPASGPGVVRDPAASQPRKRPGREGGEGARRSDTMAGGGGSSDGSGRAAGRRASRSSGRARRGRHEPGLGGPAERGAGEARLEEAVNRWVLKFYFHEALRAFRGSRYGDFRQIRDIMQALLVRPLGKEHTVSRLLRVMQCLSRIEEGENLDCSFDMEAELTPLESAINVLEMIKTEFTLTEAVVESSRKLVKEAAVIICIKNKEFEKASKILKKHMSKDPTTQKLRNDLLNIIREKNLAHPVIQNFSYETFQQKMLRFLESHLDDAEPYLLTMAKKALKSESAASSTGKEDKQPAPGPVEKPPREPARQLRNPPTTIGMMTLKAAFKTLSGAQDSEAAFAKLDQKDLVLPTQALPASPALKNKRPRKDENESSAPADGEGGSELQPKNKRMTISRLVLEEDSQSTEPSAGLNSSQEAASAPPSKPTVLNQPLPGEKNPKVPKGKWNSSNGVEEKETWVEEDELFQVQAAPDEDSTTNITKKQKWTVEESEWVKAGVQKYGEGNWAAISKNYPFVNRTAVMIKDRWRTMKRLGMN
Kind of data set: AFM volume analysis; TRF2 protein alone deposited on mica; AFM volume converted to oligomeric state by a calibration curve of volume against molecular weight; monomer to dimer. The following applies: remark: other sources report otherwise.

Data set [2] concerns the target T1, TRF2 (full length, recombinant …). In words: AFM volume analysis; TRF2 (400 nM, mixed with an equal volume of DNA) incubated with linear T270 DNA (270 TTAGGG repeats) for 30 min in 50 mM HEPES, 150 mM KCl, pH 7.5, diluted 10 fold and deposited on mica; volumes of small DNA-bound complexes (< 500 nm^3). As to conditions: remark: other sources report otherwise.

Two molecules from PMC4746636 can be followed below.

Several values for one entry are separate records, joined by “and”; a condition that tells them apart may be missing. Equal entries are not always repeated. Some results are limits rather than exact numbers.

With DNA with no telomeric sequences, the binding signal (% DNA with large complexes) with TRF2 is under 8.

B1: TRF2 (full length, recombinant His6-tagged), Q15554 1-542 (natural protein)
chain: T1 chain
As for B1, the stoichiometry N in data set [1] was 2; in data set [2], 2 and 4.

The term stoichiometry N denotes the number of molecules, sites or subunits per partner or assembly.
